Data: patent US20040265963

Target: T1, Tkip (tyrosine kinase inhibitor peptide), WLVFFVIFYFFR
T1 chain: WLVFFVIFYFFR

B1: Recombinant human JAK2 immobilized on agarose beads (protein)
chain: MGMACLTMTEMEGTSTSSIYQNGDISGNANSMKQIDPVLQVYLYHSLGKSEADYLTFPSGEYVAEEICIAASKACGITPVYHNMFALMSETERIWYPPNHVFHIDESTRHNVLYRIRFYFPRWYCSGSNRAYRHGISRGAEAPLLDDFVMSYLFAQWRHDFVHGWIKVPVTHETQEECLGMAVLDMMRIAKENDQTPLAIYNSISYKTFLPKCIRAKIQDYHILTRKRIRYRFRRFIQQFSQCKATARNLKLKYLINLETLQSAFYTEKFEVKEPGSGPSGEEIFATIIITGNGGIQWSRGKHKESETLTEQDLQLYCDFPNIIDVSIKQANQEGSNESRVVTIHKQDGKNLEIELSSLREALSFVSLIDGYYRLTADAHHYLCKEVAPPAVLENIQSNCHGPISMDFAISKLKKAGNQTGLYVLRCSPKDFNKYFLTFAVERENVIEYKHCLITKNENEEYNLSGTKKNFSSLKDLLNCYQMETVRSDNIIFQFTKCCPPKPKDKSNLLVFRTNGVSDVPTSPTLQRPTHMNQMVFHKIRNEDLIFNESLGQGTFTKIFKGVRREVGDYGQLHETEVLLKVLDKAHRNYSESFFEAASMMSKLSHKHLVLNYGVCVCGDENILVQEFVKFGSLDTYLKKNKNCINILWKLEVAKQLAWAMHFLEENTLIHGNVCAKNILLIREEDRKTGNPPFIKLSDPGISITVLPKDILQERIPWVPPECIENPKNLNLATDKWSFGTTLWEICSGGDKPLSALDSQRKLQFYEDRHQLPAPKWAELANLINNCMDYEPDFRPSFRAIIRDLNSLFTPDYELLTENDMLPNMRIGALGFSGAFEDRDPTQFEERHLKFLQQLGKGNFGSVEMCRYDPLQDNTGEVVAVKKLQHSTEEHLRDFEREIEILKSLQHDNIVKYKGVCYSAGRRNLKLIMEYLPYGSLRDYLQKHKERIDHIKLLQYTSQICKGMEYLGTKRYIHRDLATRNILVENENRVKIGDFGLTKVLPQDKEYYKVKEPGESPIFWYAPESLTESKFSVASDVWSFGVVLYELFTYIEKSKSPPAEFMRMIGNDKQGQMIVFHLIELLKNNGRLPRPDGCPDEIYMIMTECWNNNVNQRPSFRDLALRVDQIRDNMAG
JAK2 autophosphorylation and JAK2 phosphorylation of IFNGR-1, in vitro kinase assay (32P autoradiography): Tkip at 50 µM inhibited both the autophosphorylation of JAK2 as well as JAK2 phosphorylation of IFNGR-1
